Results on four molecules are retold here after patent US20190077860A1 (EISAI R AND D MANAGEMENT, published 2019).

Test [1] deals with T1, human EphA4 extracellular region-SEAP-His protein (human, UniProt P54764 20-547).
T1 construct: also called hEphA4-SEAP-His
Nature of the test: ELISA. Here is the method: (§1) Each well of a 96-well plate (Nunc) was coated with a rabbit anti-6-His antibody (Bethyl Laboratories). Each well was […] After washing with 0.05% Tween 20/PBS (Nacalai Tesque) three times, the SEAP-His protein of human EphA1, EphA2, EphA3, EphA4, EphA5, EphA6, EphA7, EphA8, EphA10, EphB1, EphB2, EphB3, EphB4, or EphB6 was added (final concentration: 1 nM) to each well and incubated at room temperature for 1 hour. After washing three times, the humanized antibody was added to each well and incubated at room temperature for 1 hour. After washing three times, a horseradish peroxidase-labeled donkey […] antibody (Jackson ImmunoResearch Laboratories) was added thereto and incubated at room temperature for 1 hour. After washing three times, TMB Microwell Peroxidase Substrate System (Kirkegaard & Perry Laboratories (KPL)) was added to each well. After confirmation of moderate color development, an equal amount of a reaction stopping solution (1N H₂SO₄, Wako Pure Chemical Industries) was added to each well. The absorbance at 450 nm was read using a microplate reader (Thermo Fisher Scientific).
On the technique in general: An ELISA detects its analyte on a solid surface through an enzyme-linked reagent.

Test [2] concerns the target T2, human EphB1 extracellular region-SEAP-His protein (human, UniProt P54762 18-540).
T2 construct: extracellular domain; also called hEphB1-SEAP-His
T2 sequence (looked up): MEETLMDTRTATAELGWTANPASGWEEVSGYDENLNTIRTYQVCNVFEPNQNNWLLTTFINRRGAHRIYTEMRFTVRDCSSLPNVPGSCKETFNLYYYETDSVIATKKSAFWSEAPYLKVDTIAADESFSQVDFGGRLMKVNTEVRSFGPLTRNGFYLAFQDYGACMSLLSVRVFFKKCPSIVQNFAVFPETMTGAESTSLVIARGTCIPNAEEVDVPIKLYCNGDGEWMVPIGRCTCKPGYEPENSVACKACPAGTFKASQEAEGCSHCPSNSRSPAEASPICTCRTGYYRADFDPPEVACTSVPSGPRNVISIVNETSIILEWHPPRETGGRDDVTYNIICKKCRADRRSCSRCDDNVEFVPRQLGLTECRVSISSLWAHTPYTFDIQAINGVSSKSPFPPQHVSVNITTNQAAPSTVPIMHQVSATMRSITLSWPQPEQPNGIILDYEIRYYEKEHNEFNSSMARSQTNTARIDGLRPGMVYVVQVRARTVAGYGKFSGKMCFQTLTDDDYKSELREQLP
Description: ELISA. Here is the method: as §1

The target in test [3] is T1, human EphA4 extracellular …. Description: SPR, Ab captured. On the procedure:
The binding affinity of each anti-EphA4 monoclonal humanized antibody obtained in Example 16 for human EphA4 was determined by surface plasmon resonance (SPR) using Biacore T200 (GE Healthcare). First, for the assay of antibody A, a rat anti-mouse IgG₁ antibody produced with a conventional method by immunizing rat with mouse IgG₁ antibody was immobilized on sensor chip CM5. The immobilization of the rat anti-mouse IgG1 antibody on sensor chip CM5 was performed by the amine coupling method using N-hydroxysuccinimide (NHS) and N-ethyl-N′-(3-dimethylaminopropyl)carbodiimide hydrochloride (EDC). Ethanolamine was used in blocking (the sensor chip and the reagents for immobilization were all manufactured by GE Healthcare). The antibody was diluted with a buffer solution for immobilization (10 mM sodium acetate, pH 4.5) and immobilized on the sensor chip according to the protocol attached to Biacore T200. For the assay of each humanized monoclonal antibody, a protein A chip (GE Healthcare, 29-1383-03) was used. Antibody A or the humanized monoclonal antibody was diluted with a running buffer solution HBS-EP (GE Healthcare), injected onto only flow cell 2 for 120 seconds, and captured (captured amount: approximately 30 to 60 RU). Subsequently, human EphA4 extracellular region-SEAP-His protein serially diluted in the range of 50, 16.7, 5.6, 1.9, and 0.6 nM using HBS-EP was sequentially added from the lower toward higher concentration sides without regeneration operation. Binding reaction curves were sequentially observed at the time of the addition (association phase, for 120 sec) and after the completion of the addition (dissociation phase, for 900 sec). After the completion of each observation, the sensor chip was regenerated by the addition of 3 M MgCl₂ (for 60 sec) or 10 mM Glycine-HCl pH 1.5 (for 30 sec). The obtained binding reaction curves were subjected to fitting analysis with 1:1 binding models using software BIA evaluation attached to the system to calculate the affinity (KD=kd/ka) for human EphA4 (Table 6).
(Surface plasmon resonance follows binding to a sensor surface in real time, without labels.)

The target is the same in test [4]. Nature of the test: competition ELISA, competitor human Ephrin A5-Fc. On the procedure: Each anti-EphA4 monoclonal humanized antibody obtained in Example 16 was evaluated for its inhibitory activity against the binding between human EphA4 and its human ligand according to the following steps. Each well of a 96-well plate (Nunc) was coated with an anti-alkaline phosphatase antibody (Thermo Fisher Scientific). After incubation overnight at 4° C., each well was blocked with 1% BlockAce (DS Pharma Biomedical) at room temperature for 1 hour. After washing with 0.05% Tween 20/PBS (Thermo Fisher Scientific) three times, the human EphA4 extracellular region-SEAP-His protein obtained by the method of Example 2 was added (final concentration: 10 nM) to each well and incubated at room temperature for 1 hour. After washing three times, a ligand and each serially diluted humanized antibody of antibody A (0, 0.003, 0.01, 0.03, 0.1, 0.3, 1, 3, 10, 30, 100, 300, 1000, and 3000 nM) were added to each well. The ligand used was biotinylated human Ephrin A5-Fc chimera (R&D Systems, final concentration: 0.7 nM). After incubation at room temperature for 1 hour and subsequent washing three times, horseradish peroxidase-labeled streptavidin (GE Healthcare) was added thereto and incubated at room temperature for 1 hour. After washing three times, a TMBZ (3,3′,5,5′-tetramethylbenzidine, Sigma-Aldrich) solution was added to each well and incubated at room temperature for 2 minutes. An equal amount of a reaction stopping solution (1N H₂SO₄, Wako Pure Chemical Industries) was added to each well. The absorbance at 450 nm was read using a microplate reader (PerkinElmer).

T1 sequence (P54764 20-547): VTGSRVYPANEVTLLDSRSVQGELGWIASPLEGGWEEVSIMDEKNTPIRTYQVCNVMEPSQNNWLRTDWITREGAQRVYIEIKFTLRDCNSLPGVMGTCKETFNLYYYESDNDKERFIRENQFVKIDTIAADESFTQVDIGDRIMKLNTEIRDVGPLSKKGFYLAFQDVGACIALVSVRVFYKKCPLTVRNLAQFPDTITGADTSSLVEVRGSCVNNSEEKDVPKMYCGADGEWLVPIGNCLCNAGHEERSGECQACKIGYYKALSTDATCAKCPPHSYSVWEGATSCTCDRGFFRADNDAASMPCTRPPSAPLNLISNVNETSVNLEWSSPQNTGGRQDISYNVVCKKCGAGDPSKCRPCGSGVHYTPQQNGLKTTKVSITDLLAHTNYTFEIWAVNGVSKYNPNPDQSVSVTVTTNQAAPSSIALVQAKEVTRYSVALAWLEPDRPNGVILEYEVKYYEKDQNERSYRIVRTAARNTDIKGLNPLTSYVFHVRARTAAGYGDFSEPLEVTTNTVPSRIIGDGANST

B1: humanized antibody No. 77 (antibody, human IgG1, kappa)
heavy: QVQLVQSGSELKKPGASVKVSCKASGYTFTDYSMHWVRQAPGQGLEWMGWINTETGEPTYADDFKGRFVFSLDTSVSTAYLQISSLKAEDTAVYYCARIPLYYYGSRYWYFDVWGQGTTVTVSSASTKGPSVFPLAPSSKSTSGGTAALGCLVKDYFPEPVTVSWNSGALTSGVHTFPAVLQSSGLYSLSSVVTVPSSSLGTQTYICNVNHKPSNTKVDKRVEPKSCDKTHTCPPCPAPPAAAPSVFLFPPKPKDTLMISRTPEVTCVVVDVSHEDPEVQFNWYVDGVEVHNAKTKPREEQFNSTFRVVSVLTVVHQDWLNGKEYKCKVSNKGLPAPIEKTISKTKGQPREPQVYTLPPSREEMTKNQVSLTCLVKGFYPSDIAVEWESNGQPENNYKTTPPMLDSDGSFFLYSKLTVDKSRWQQGNVFSCSVMHEALHNHYTQKSLSLSPG
light: DIQMTQSPSSLSASVGDRVTITCRASENIYRNLAWYQQKPGKAPKLLVYAATNLADGVPSRFSGSGSGTDYTLTISSLQPEDFATYYCQHFWGTPWTFGQGTKVEIKRTVAAPSVFIFPPSDEQLKSGTASVVCLLNNFYPREAKVQWKVDNALQSGNSQESVTEQDSKDSTYSLSSTLTLSKADYEKHKVYACEVTHQGLSSPVTKSFNRGEC
notes: human Ig kappa; also called L1-4/HK1
What is called Kd is the free concentration of one partner at which half of the binding sites on the other are occupied at equilibrium, for simple one-to-one binding. Low values mean a tighter complex, high ones a looser complex. As a reminder, the koff is a measure of how fast the partners let go of each other. One may read the kon as the rate constant with which the complex forms. The low end stands for slower complex formation, the high end for faster complex formation. One may read the IC50 as the concentration that gives 50% inhibition. High values mean a need for much substance, low ones inhibition by little substance. As to B1, in test [1], the “A450 as % of hEphA4-SEAP-His” value was 100%. In addition, the “A450 as % of hEphA4-SEAP-His” value in test [2] amounted to 4.6%. For the same molecule, in test [3], the affinity, expressed as Kd, was 1.4 nM; the koff turned out to be 0.00058 s⁻¹; the kon was 410000 M⁻¹ s⁻¹. This molecule returned a 50% inhibitory concentration (IC50) in test [4] of 3.5 nM.

B2: humanized antibody No. 82 (antibody, human IgG1, kappa)
heavy: QVQLVQSGSELKKPGASVKVSCKASGYTFTDYSMHWVRQAPGQGLKWMGWINTETGEPTYAQGFTGRFVFSLDTSVSTAYLQISSLKAEDTAVYYCARIPLYYYGSRYWYFDVWGQGTTVTVSSASTKGPSVFPLAPSSKSTSGGTAALGCLVKDYFPEPVTVSWNSGALTSGVHTFPAVLQSSGLYSLSSVVTVPSSSLGTQTYICNVNHKPSNTKVDKRVEPKSCDKTHTCPPCPAPPAAAPSVFLFPPKPKDTLMISRTPEVTCVVVDVSHEDPEVQFNWYVDGVEVHNAKTKPREEQFNSTFRVVSVLTVVHQDWLNGKEYKCKVSNKGLPAPIEKTISKTKGQPREPQVYTLPPSREEMTKNQVSLTCLVKGFYPSDIAVEWESNGQPENNYKTTPPMLDSDGSFFLYSKLTVDKSRWQQGNVFSCSVMHEALHNHYTQKSLSLSPG
light: DIQMTQSPSSLSASVGDRVTITCRASENIYRNLAWYQQKPGKAPKLLLYAATNLADGVPSRFSGSGSGTDYTLTISSLQSEDFATYYCQHFWGTPWTFGQGTKVEIKRTVAAPSVFIFPPSDEQLKSGTASVVCLLNNFYPREAKVQWKVDNALQSGNSQESVTEQDSKDSTYSLSSTLTLSKADYEKHKVYACEVTHQGLSSPVTKSFNRGEC
notes: human Ig kappa; also called L1-5/HA2
Turning to B2, in test [1], the “A450 as % of hEphA4-SEAP-His” value was determined as 100%. For the same molecule, in test [2], the “A450 as % of hEphA4-SEAP-His” value stood at 5.4%. Also, in test [3], binding was characterised by a dissociation constant (Kd) of 1.6 nM, the koff was 0.00046 s⁻¹ and the on-rate constant (kon) amounted to 290000 M⁻¹ s⁻¹. In test [4], this molecule returned an IC50 of 4.1 nM.

B3: humanized antibody No. 81 (antibody, human IgG1, kappa)
heavy: QVQLVQSGSELKKPGASVKVSCKASGYTFTDYSMHWVRQAPGQGLEWMGWINTETGEPTYAQGFTGRFVFSLDTSVSTAYLQISSLKAEDTAVYYCARIPLYYYGSRYWYFDVWGQGTTVTVSSASTKGPSVFPLAPSSKSTSGGTAALGCLVKDYFPEPVTVSWNSGALTSGVHTFPAVLQSSGLYSLSSVVTVPSSSLGTQTYICNVNHKPSNTKVDKRVEPKSCDKTHTCPPCPAPPAAAPSVFLFPPKPKDTLMISRTPEVTCVVVDVSHEDPEVQFNWYVDGVEVHNAKTKPREEQFNSTFRVVSVLTVVHQDWLNGKEYKCKVSNKGLPAPIEKTISKTKGQPREPQVYTLPPSREEMTKNQVSLTCLVKGFYPSDIAVEWESNGQPENNYKTTPPMLDSDGSFFLYSKLTVDKSRWQQGNVFSCSVMHEALHNHYTQKSLSLSPG
light: DIQMTQSPSSLSASVGDRVTITCRASENIYRNLAWYQQKPGKAPKLLLYAATNLADGVPSRFSGSGSGTDYTLTISSLQSEDFATYYCQHFWGTPWTFGQGTKVEIKRTVAAPSVFIFPPSDEQLKSGTASVVCLLNNFYPREAKVQWKVDNALQSGNSQESVTEQDSKDSTYSLSSTLTLSKADYEKHKVYACEVTHQGLSSPVTKSFNRGEC
notes: human Ig kappa; also called L1-5/HA1
In the case of B3, the “A450 as % of hEphA4-SEAP-His” value in test [1] was found to be 100%. In addition, in test [2], the “A450 as % of hEphA4-SEAP-His” value came out at 4.9%. In test [3], this molecule displayed a Kd of 1.6 nM, an off-rate (koff) of 0.00054 s⁻¹ and an on-rate (kon) of 340000 M⁻¹ s⁻¹. In test [4], this molecule yielded a half-maximal inhibitory concentration (IC50) of 4 nM.

B4: humanized antibody No. 78 (antibody, human IgG1, kappa)
heavy: QVQLVQSGSELKKPGASVKVSCKASGYTFTDYSMHWVRQAPGQGLKWMGWINTETGEPTYADDFKGRFVFSLDTSVSTAYLQISSLKAEDTAVYYCARIPLYYYGSRYWYFDVWGQGTTVTVSSASTKGPSVFPLAPSSKSTSGGTAALGCLVKDYFPEPVTVSWNSGALTSGVHTFPAVLQSSGLYSLSSVVTVPSSSLGTQTYICNVNHKPSNTKVDKRVEPKSCDKTHTCPPCPAPPAAAPSVFLFPPKPKDTLMISRTPEVTCVVVDVSHEDPEVQFNWYVDGVEVHNAKTKPREEQFNSTFRVVSVLTVVHQDWLNGKEYKCKVSNKGLPAPIEKTISKTKGQPREPQVYTLPPSREEMTKNQVSLTCLVKGFYPSDIAVEWESNGQPENNYKTTPPMLDSDGSFFLYSKLTVDKSRWQQGNVFSCSVMHEALHNHYTQKSLSLSPG
light: DIQMTQSPSSLSASVGDRVTITCRASENIYRNLAWYQQKPGKAPKLLVYAATNLADGVPSRFSGSGSGTDYTLTISSLQPEDFATYYCQHFWGTPWTFGQGTKVEIKRTVAAPSVFIFPPSDEQLKSGTASVVCLLNNFYPREAKVQWKVDNALQSGNSQESVTEQDSKDSTYSLSSTLTLSKADYEKHKVYACEVTHQGLSSPVTKSFNRGEC
notes: human Ig kappa; also called L1-4/HK2
B4: the “A450 as % of hEphA4-SEAP-His” value in test [1] was determined as 100%. For the same molecule, the “A450 as % of hEphA4-SEAP-His” value in test [2] is 5%. In test [3], the Kd was 1.1 nM, the koff was 0.00039 s⁻¹ and the kon is 340000 M⁻¹ s⁻¹. Besides, the IC50 in test [4] came to 2.8 nM.
